Test results taken from patent US20040072293A1, “Novel physiologically active peptide and use thereof” (priority 2001, published 2004).

Experiments:
proximal colon = details: cited from earlier work
ileum or distal colon = details: cited from earlier work
[1] = target: T1, the protein of the invention (ZAQ) (Homo sapiens, UniProt Q8TCW9); test: activation of the protein of the invention and intracellular Ca ion concentration in cells expressing it; assay type: cell-based
T1 construct: expressed in transfected cells
T1 sequence (Q8TCW9 whole entry): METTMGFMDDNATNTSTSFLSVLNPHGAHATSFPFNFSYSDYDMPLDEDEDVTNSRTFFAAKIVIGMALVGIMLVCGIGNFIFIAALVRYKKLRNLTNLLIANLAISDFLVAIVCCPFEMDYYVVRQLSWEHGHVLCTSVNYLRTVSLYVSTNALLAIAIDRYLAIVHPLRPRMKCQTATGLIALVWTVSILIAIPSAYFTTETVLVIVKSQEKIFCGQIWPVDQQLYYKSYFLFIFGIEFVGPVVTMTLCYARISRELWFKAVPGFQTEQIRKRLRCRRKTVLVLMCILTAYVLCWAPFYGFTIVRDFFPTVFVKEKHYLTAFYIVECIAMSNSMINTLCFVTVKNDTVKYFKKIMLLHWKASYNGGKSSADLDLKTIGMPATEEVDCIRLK

B1: MIT1 (protein, listed as Dendroaspip polylepis)
chain: AVITGACERDLQCGKGTCCAVSLWIKSVRVCTPVGTSGEDCHPASHKIPFSGQRMHHTCPCAPNLACVQTSPKKFKCLSK
- relaxation in the proximal colon (proximal colon): relaxation in the proximal colon
- contraction in the ileum or distal colon (ileum or distal colon): induced contraction in the ileum or distal colon
- degree of contraction/relaxation compared with potassium chloride (ileum or distal colon; ileum, distal colon (contraction) and proximal colon (relaxation), comparator 40 mM potassium chloride): as potent as comparable to 40 mM potassium chloride
- activation of the protein of the invention [1]: activated the protein of the invention
- intracellular Ca ion concentration ([1]; cells in which the protein of the invention was expressed): increased intracellular Ca ion concentration
